Test results taken from publication PMC4010534.

Biological target: Cdc42 biosensor with the effector-binding mutations T35S and Y40C in Cdc42 (UniProt Q13153)

difference in FRET/mCer ratio of the biosensor by fluorometry in HEK293 cells, GDI-bound (with excess GDI) against GDI-free: 17%
Substance: guanine nucleotide dissociation inhibitor (from UniProt P52565 1-204) (natural protein)
